The assay concerns the target recombinant Human IL-8 (BD Pharmingen cat #554609) (human) (UniProt P10145). Put plainly: sandwich immunoassay on Capture Antibody 1 magnetic beads; potentiometric read-out of bound glucose oxidase conjugate after adding glucose; no potential without IL-8.

Capture Antibody 2, an anti-Mouse α-Human IL-8 Monoclonal Antibody (for ICC, BD Pharmingen cat #550419), conjugated to Glucose Oxidase from Aspergillus niger, sequence (P13006 23-605): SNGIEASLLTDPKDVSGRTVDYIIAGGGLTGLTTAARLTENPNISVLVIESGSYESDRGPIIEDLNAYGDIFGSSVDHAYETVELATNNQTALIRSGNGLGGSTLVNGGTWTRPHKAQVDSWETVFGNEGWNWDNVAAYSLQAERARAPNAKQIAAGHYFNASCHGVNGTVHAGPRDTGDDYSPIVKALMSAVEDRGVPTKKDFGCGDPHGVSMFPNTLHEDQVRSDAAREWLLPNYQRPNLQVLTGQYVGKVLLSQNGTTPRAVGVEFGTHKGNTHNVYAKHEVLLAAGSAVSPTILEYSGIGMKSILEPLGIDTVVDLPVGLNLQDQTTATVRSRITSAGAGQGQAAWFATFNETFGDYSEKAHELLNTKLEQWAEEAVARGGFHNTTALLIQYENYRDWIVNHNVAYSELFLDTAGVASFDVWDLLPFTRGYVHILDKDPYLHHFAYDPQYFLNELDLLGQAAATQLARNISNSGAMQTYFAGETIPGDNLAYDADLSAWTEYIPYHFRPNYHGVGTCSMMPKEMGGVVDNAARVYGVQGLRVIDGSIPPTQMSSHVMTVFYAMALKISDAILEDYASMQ
recombinant Human IL-8 (BD Pharmingen cat #554609) (human), sequence (P10145 28-99 limits assumed): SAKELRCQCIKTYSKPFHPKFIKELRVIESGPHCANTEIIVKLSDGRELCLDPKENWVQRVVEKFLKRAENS

Turning to “Capture Antibody 2, an anti-Mouse α-Human IL-8 Monoclonal Antibody (for ICC, BD Pharmingen cat #550419), conjugated to Glucose Oxidase from Aspergillus niger (from UniProt P13006 23-605)”, the potential is 1 to 55 mV.
